Experimental data: paper PMC2918688 (Molecular immunology, 2010)

T1: HA-NFATc2 (human, UniProt Q13469-2 1-921)
T1 sequence (looked up): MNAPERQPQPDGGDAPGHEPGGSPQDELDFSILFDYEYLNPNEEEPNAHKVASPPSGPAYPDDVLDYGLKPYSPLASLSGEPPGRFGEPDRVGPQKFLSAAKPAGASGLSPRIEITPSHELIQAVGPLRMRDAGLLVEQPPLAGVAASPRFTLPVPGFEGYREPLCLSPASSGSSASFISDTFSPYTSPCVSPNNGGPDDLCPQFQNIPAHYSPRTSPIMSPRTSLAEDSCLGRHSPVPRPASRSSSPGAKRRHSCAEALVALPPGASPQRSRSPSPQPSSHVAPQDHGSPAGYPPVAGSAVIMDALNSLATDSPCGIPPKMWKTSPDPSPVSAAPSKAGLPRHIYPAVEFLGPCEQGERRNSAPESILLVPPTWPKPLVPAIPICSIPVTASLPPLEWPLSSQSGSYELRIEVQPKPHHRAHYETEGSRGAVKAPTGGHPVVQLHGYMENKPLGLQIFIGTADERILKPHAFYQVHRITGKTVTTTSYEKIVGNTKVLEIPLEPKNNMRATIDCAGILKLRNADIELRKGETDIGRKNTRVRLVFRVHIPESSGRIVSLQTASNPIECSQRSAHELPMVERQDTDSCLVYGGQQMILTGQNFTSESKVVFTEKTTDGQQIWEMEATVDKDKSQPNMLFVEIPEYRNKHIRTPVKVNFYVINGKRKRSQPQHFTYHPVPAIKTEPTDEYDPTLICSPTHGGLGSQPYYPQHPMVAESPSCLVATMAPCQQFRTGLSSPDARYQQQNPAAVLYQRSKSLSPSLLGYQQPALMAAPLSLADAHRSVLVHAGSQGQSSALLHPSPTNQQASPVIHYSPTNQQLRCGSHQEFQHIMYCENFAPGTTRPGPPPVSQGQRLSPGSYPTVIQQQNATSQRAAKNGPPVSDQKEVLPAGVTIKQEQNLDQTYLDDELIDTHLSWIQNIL

T2: GST-NFATc2 (full-length) (human, UniProt Q13469-2 1-921)
T2 sequence (looked up): T1 sequence (looked up)

B1: GST-cJun(1–317) (domain or fragment, human, UniProt P05412 1-317, looked up)
chain: MTAKMETTFYDDALNASFLPSESGPYGYSNPKILKQSMTLNLADPVGSLKPHLRAKNSDLLTSPDVGLLKLASPELERLIIQSSNGHITTTPTPTQFLCPKNVTDEQEGFAEGFVRALAELHSQNTLPSVTSAAQPVNGAGMVAPAVASVAGGSGSGGFSASLHSEPPVYANLSNFNPGALSSGGGAPSYGAAGLAFPAQPQQQQQPPHHLPQQMPVQHPRLQALKEEPQTVPEMPGETPPLSPIDMESQERIKAERKRMRNRIAASKCRKRKLERIARLEEKVKTLKAQNSELASTANMLREQVAQLKQKVMNHVN
B2: purified cJun (natural protein, human, UniProt P05412 1-331, looked up)
chain: MTAKMETTFYDDALNASFLPSESGPYGYSNPKILKQSMTLNLADPVGSLKPHLRAKNSDLLTSPDVGLLKLASPELERLIIQSSNGHITTTPTPTQFLCPKNVTDEQEGFAEGFVRALAELHSQNTLPSVTSAAQPVNGAGMVAPAVASVAGGSGSGGFSASLHSEPPVYANLSNFNPGALSSGGGAPSYGAAGLAFPAQPQQQQQPPHHLPQQMPVQHPRLQALKEEPQTVPEMPGETPPLSPIDMESQERIKAERKRMRNRIAASKCRKRKLERIARLEEKVKTLKAQNSELASTANMLREQVAQLKQKVMNHVNSGCQLMLTQQLQTF
B3: GST-NFATc2(688–921) (domain or fragment, human, UniProt Q13469-2 688-921, looked up)
chain: EYDPTLICSPTHGGLGSQPYYPQHPMVAESPSCLVATMAPCQQFRTGLSSPDARYQQQNPAAVLYQRSKSLSPSLLGYQQPALMAAPLSLADAHRSVLVHAGSQGQSSALLHPSPTNQQASPVIHYSPTNQQLRCGSHQEFQHIMYCENFAPGTTRPGPPPVSQGQRLSPGSYPTVIQQQNATSQRAAKNGPPVSDQKEVLPAGVTIKQEQNLDQTYLDDELIDTHLSWIQNIL

How the values were obtained:
Assay in all cases: pull-down
[1] = molecular target: T1, HA-NFATc2
[2] = molecular target: T2, GST-NFATc2 (full-length)
[3] = molecular target: B2

Binder: B1
binding result [1]: binds

Binder: B2
binding result [2]: binds

Binder: B3
binding result [3]: binds
